From patent publication US20040142445

Key:
[1] = target: recombinant aggrecan G1G2, P16112
[2] = target: natural type aggrecan (mfd. by Seikagaku Kogyo)

recombinant aggrecan G1G2, P16112, sequence (P16112 20-675): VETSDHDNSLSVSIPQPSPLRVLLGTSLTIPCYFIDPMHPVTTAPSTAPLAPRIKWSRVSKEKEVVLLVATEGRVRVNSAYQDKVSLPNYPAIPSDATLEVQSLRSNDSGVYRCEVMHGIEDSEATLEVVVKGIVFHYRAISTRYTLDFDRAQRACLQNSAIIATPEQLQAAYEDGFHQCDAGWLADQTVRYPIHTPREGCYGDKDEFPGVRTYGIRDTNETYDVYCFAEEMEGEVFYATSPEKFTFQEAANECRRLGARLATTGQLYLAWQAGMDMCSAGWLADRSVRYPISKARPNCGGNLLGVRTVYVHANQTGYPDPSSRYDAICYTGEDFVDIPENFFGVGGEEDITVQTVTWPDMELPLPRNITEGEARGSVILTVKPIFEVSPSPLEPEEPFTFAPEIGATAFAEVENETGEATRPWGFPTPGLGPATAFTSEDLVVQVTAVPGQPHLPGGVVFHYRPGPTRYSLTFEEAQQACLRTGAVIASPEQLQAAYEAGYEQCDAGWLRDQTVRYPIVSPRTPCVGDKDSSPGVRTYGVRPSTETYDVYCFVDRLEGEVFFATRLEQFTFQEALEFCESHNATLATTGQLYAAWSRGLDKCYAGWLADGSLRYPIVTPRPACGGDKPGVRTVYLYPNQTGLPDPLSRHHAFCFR

| Protein | recombinant aggrecan G1G2 degrading activity (western blot, anti-His detection) [1] | aggrecanase activity (method of Example 7-3, neoepitope western blot) [1] | cleavage at the aggrecanase site (western blot) [2] | degradation of natural type aggrecan (neoepitope western blot) [2] | cleavage at the aggrecanase site (western blot) [1] |
| --- | --- | --- | --- | --- | --- |
| MDTS6TSP1 protein (protein) FVSIPRYVETLVVADESMVKFHGADLEHYLLTLLATAARLYRHPSILNPINIVVVKVLLLRDRDSGPKVTGNAALTLRNFCAWQKKLNKVSDKHPEYWDTAILFTRQDLCGATTCDTLGMADVGTMCDPKRSCSVIEDDGLPSAFTTAHELGHVFNMPHDNVKVCEEVFGKLRANHMMSPTLIQIDRANPWSACSAAIITDFLDSGHGDCLLDQPSKPISLPEDLPGASYTLSQQCELAFGVGSKPCPYMQYCTKLWCTGKAKGQMVCQTRHFPWADGTSCGEGKLCLKGACVERHNLNKHRVDGSWAKWDPYGPCSRTCGGGVQLARRQCTNPTPANGGKYCEGVRVKYRSCNLEPCPSSASGKSFREEQ | degraded fragment of the recombinant aggrecan, which was not found in the control in which only the expression plasmid was introduced, was detected | – | – | – | – |
| MDTS6Dis (protein) FVSIPRYVETLVVADESMVKFHGADLEHYLLTLLATAARLYRHPSILNPINIVVVKVLLLRDRDSGPKVTGNAALTLRNFCAWQKKLNKVSDKHPEYWDTAILFTRQDLCGATTCDTLGMADVGTMCDPKRSCSVIEDDGLPSAFTTAHELGHVFNMPHDNVKVCEEVFGKLRANHMMSPTLIQIDRANPWSACSAAIITDFLDSGHGDCLLDQPSKPISLPEDLPGASYTLSQQCELAFGVGSKPCPYMQYCTKLWCTGKAKGQMVCQTRHFPWADGTSCGEGKLCLKGACVERHNLNKHRVDGSGSAAADYKDDDDK | – | the aggrecanase activity was not detected in the culture supernatants in which MDTS6Pro and MDTS6Dis were expressed | – | – | – |
| MDTS6Pro (protein) FVSIPRYVETLVVADESMVKFHGADLEHYLLTLLATAARLYRHPSILNPINIVVVKVLLLRDRDSGPKVTGNAALTLRNFCAWQKKLNKVSDKHPEYWDTAILFTRQDLCGATTCDTLGMADVGTMCDPKRSCSVIEDDGLPSAFTTAHELGHVFNMPHDNVKVCEEVFGKLRANHMMSPTLIQIDRANPWSACSAAIITDFLDSGHGDCLLDQPSKPISLPEDLPGASYTLSQQGSAAADYKDDDDK | – | the aggrecanase activity was not detected in the culture supernatants in which MDTS6Pro and MDTS6Dis were expressed | – | – | – |
| MDTS6Cys (protein) FVSIPRYVETLVVADESMVKFHGADLEHYLLTLLATAARLYRHPSILNPINIVVVKVLLLRDRDSGPKVTGNAALTLRNFCAWQKKLNKVSDKHPEYWDTAILFTRQDLCGATTCDTLGMADVGTMCDPKRSCSVIEDDGLPSAFTTAHELGHVFNMPHDNVKVCEEVFGKLRANHMMSPTLIQIDRANPWSACSAAIITDFLDSGHGDCLLDQPSKPISLPEDLPGASYTLSQQCELAFGVGSKPCPYMQYCTKLWCTGKAKGQMVCQTRHFPWADGTSCGEGKLCLKGACVERHNLNKHRVDGSWAKWDPYGPCSRTCGGGVQLARRQCTNPTPANGGKYCEGVRVKYRSCNLEPCPSSASGKSFREEQCEAFNGYNHSTNRLTLAVAWVPKYSGVSPRDKCKLICRANGTGYFYVLAPKVVDGTLCSPDSTSVCVQGKCIKAGCDGNLGSKKRFDKCGVCGGDNKSCKKVTGGSAAADYKDDDDK | – | the aggrecanase activity was detected in the culture supernatant in which MDTS6Cys was expressed | the recombinant aggrecan G1G2 and the natural type aggrecan are cleaved off at the site between Glu373-Ala374 ... by MDTS6Cys | a band of 80 to 90 KDa was detected in the case of MDTS6Cys in addition to a band of about 150 KDa | the recombinant aggrecan G1G2 and the natural type aggrecan are cleaved off at the site between Glu373-Ala374 ... by MDTS6Cys |
